This is an account of results in patent publication CN113583115A (YANG SHENG TANG CO LTD; UNIV XIAMEN, dated 2021).

Experiment [1] has as its target T1, SARS-CoV-2受体结合区RBD-mFc (SARS-CoV-2, UniProt P0DTC2 319-541).
T1 construct: domain: 受体结合区RBD
As to the kind of experiment: indirect ELISA, RBD-mFc coated at 2 μg/mL, HRP goat anti-rabbit IgG. In general terms: An ELISA detects its analyte on a solid surface through an enzyme-linked reagent.

The target of experiment [2] is T2, SARS-CoV-2受体结合区RBD-His蛋白 (SARS-CoV-2, UniProt P0DTC2 316-550).
The target in experiment [3] is SARS-CoV-2 Sde18截短蛋白 (假病毒SARS-CoV2 VSVpp所携带) (SARS-CoV-2, UniProt P0DTC2 14-1255). In words: cell-based or functional assay.
Experiment [4] addresses T2, SARS-CoV-2受体结合区RBD-His蛋白. As to the kind of experiment: indirect ELISA, RBD-His coated at 2 μg/mL, HRP goat anti-human IgG.

Where a chain is given by its changes, count along the chain named.

B1: 兔源单克隆抗体3F4 (antibody, V domains shown)
VH: QSVKESGGRLVTPGTPLTLTCTVSGFSLSSYWMSWVRQAPGKGLEWIGIIFTGGSTYYASWAKGRFTISKTSTTVDLKITSPTTEDTATYFCARTSYYDVSGWGVGRLDLWGQGTLVTVSS
VL: DPMLTQTASSVSAAVGGTVTISCQSSQSVYDNNWLGWYQQKPGQPPKLLIYSASTLASGVPSRFKGSGSGTQFTLTISDLECDDAATYYCAGGYSGNIFAFGGGTELEIL
notes: also called r3F4
Turning to B1, a half-maximal effect in experiment [1] (EC50) was put at 0.0144 µg/mL. Moreover, in experiment [2], the Kd was determined as 8.79 nM. Besides, the “IC50 (SARS-CoV2 VSVpp假病毒感染模型中和, BHK21-hACE2细胞)” value in experiment [3] is 1.95 ng/mL.

B2: 3F4人源化抗体 (VH SEQ ID NO:15 + VL SEQ ID NO:19) (antibody, V domains shown)
VH: EVQLVESGGGLVQPGGSLRLSCAASGFSLSSYWMSWVRQAPGKGLEWVSIIFTGGSTYYASWAKGRFTISRHNSKNTLYLQMNSLRAEDTAVYYCARTSYYDVSGWGVGRLDLWGQGTLVTVSS
VL: DIQMTQSPSTLSASVGDRVTITCQSSQSVYDNNWLGWYQQKPGKAPKLLIYSASTLASGVPSRFSGSGSGTEFTLTISSLQPDDFATYYCAGGYSGNIFAFGQGTKLEILR
Turning to B2, the binding result in experiment [4] is “binds”.

B3: 3F4人源化抗体 (VH SEQ ID NO:17 + VL SEQ ID NO:19) (antibody, V domains shown)
VH: B2 VH with V92T, Y94F
VL: B2 VL
In the case of B3, in experiment [4], the binding result was “binds”.

B4: 3F4人源化抗体 (VH SEQ ID NO:16 + VL SEQ ID NO:19) (antibody, V domains shown)
VH: B2 VH with V48I, S49G
VL: B2 VL
In the case of B4, the binding result in experiment [4] is reported as “binds”.

B5: 3F4人源化抗体 (VH SEQ ID NO:18 + VL SEQ ID NO:19) (antibody, V domains shown)
VH: B2 VH with A23T, A24V
VL: B2 VL
With B5, the binding result in experiment [4] is recorded as “binds”.

Broadly, the EC50 is the concentration at which the effect is half-maximal. As usually defined, the Kd is a measure of binding affinity in units of concentration. Lower therefore signals higher affinity.
